We go through six molecules from patent publication EP4692114A1, “CALCITONIN ANALOGUE, AND DERIVATIVE THEREOF AND USE THEREOF” (Hangzhou Sciwind Biosciences Co., Ltd., priority 2023, dated 2024).

*1 amine or outer side, *2 acyl side, *3 side chain or, on linkers, in order; H or OH if unused. Primed or numbered codes have the meaning given here. The star is where a group is joined. C20 diacid = O=C(O)CCCCCCCCCCCCCCCCCCC(=O)*; C18 diacid = O=C(O)CCCCCCCCCCCCCCCCC(=O)*; γGlu = O=C(O)[C@H](CCC(=O)[*:2])N[*:1]; Inp′ = not defined here; AEEA = NCCOCCOCC(=O)O

To fix the notation:
B1: calcitonin derivative M32 (peptide)
peptide: {C20 diacid-γGlu}-RSQLSTEVLGRLSQELHRLQDYPRTDVGSGSP-NH2
SMILES: CC(C)C[C@H](NC(=O)[C@H](CCCNC(=N)N)NC(=O)CNC(=O)[C@H](CC(C)C)NC(=O)[C@@H](NC(=O)[C@H](CCC(=O)O)NC(=O)[C@@H](NC(=O)[C@H](CO)NC(=O)[C@H](CC(C)C)NC(=O)[C@H](CCC(N)=O)NC(=O)[C@H](CO)NC(=O)[C@H](CCCNC(=N)N)NC(=O)CC[C@H](NC(=O)CCCCCCCCCCCCCCCCCCC(=O)O)C(=O)O)[C@@H](C)O)C(C)C)C(=O)N[C@@H](CO)C(=O)N[C@@H](CCC(N)=O)C(=O)N[C@@H](CCC(=O)O)C(=O)N[C@@H](CC(C)C)C(=O)N[C@@H](Cc1c[nH]cn1)C(=O)N[C@@H](CCCNC(=N)N)C(=O)N[C@@H](CC(C)C)C(=O)N[C@@H](CCC(N)=O)C(=O)N[C@@H](CC(=O)O)C(=O)N[C@@H](Cc1ccc(O)cc1)C(=O)N1CCC[C@H]1C(=O)N[C@@H](CCCNC(=N)N)C(=O)N[C@H](C(=O)N[C@@H](CC(=O)O)C(=O)N[C@H](C(=O)NCC(=O)N[C@@H](CO)C(=O)NCC(=O)N[C@@H](CO)C(=O)N1CCC[C@H]1C(N)=O)C(C)C)[C@@H](C)O
B2: calcitonin derivative M49 (peptide)
peptide: {C20 diacid-γGlu}-ASQLSTAVLGRLSQELHRLQDFPRTDVGSGSP-NH2
SMILES: CC(C)C[C@H](NC(=O)[C@H](CCCNC(=N)N)NC(=O)CNC(=O)[C@H](CC(C)C)NC(=O)[C@@H](NC(=O)[C@H](C)NC(=O)[C@@H](NC(=O)[C@H](CO)NC(=O)[C@H](CC(C)C)NC(=O)[C@H](CCC(N)=O)NC(=O)[C@H](CO)NC(=O)[C@H](C)NC(=O)CC[C@H](NC(=O)CCCCCCCCCCCCCCCCCCC(=O)O)C(=O)O)[C@@H](C)O)C(C)C)C(=O)N[C@@H](CO)C(=O)N[C@@H](CCC(N)=O)C(=O)N[C@@H](CCC(=O)O)C(=O)N[C@@H](CC(C)C)C(=O)N[C@@H](Cc1c[nH]cn1)C(=O)N[C@@H](CCCNC(=N)N)C(=O)N[C@@H](CC(C)C)C(=O)N[C@@H](CCC(N)=O)C(=O)N[C@@H](CC(=O)O)C(=O)N[C@@H](Cc1ccccc1)C(=O)N1CCC[C@H]1C(=O)N[C@@H](CCCNC(=N)N)C(=O)N[C@H](C(=O)N[C@@H](CC(=O)O)C(=O)N[C@H](C(=O)NCC(=O)N[C@@H](CO)C(=O)NCC(=O)N[C@@H](CO)C(=O)N1CCC[C@H]1C(N)=O)C(C)C)[C@@H](C)O
B3: calcitonin derivative M16 (peptide)
peptide: {C20 diacid-γGlu}-ASQLSTAVLGRLSQELHRLQDYPRTDSGSGSP-NH2
SMILES: CC(C)C[C@H](NC(=O)[C@H](CCCNC(=N)N)NC(=O)CNC(=O)[C@H](CC(C)C)NC(=O)[C@@H](NC(=O)[C@H](C)NC(=O)[C@@H](NC(=O)[C@H](CO)NC(=O)[C@H](CC(C)C)NC(=O)[C@H](CCC(N)=O)NC(=O)[C@H](CO)NC(=O)[C@H](C)NC(=O)CC[C@H](NC(=O)CCCCCCCCCCCCCCCCCCC(=O)O)C(=O)O)[C@@H](C)O)C(C)C)C(=O)N[C@@H](CO)C(=O)N[C@@H](CCC(N)=O)C(=O)N[C@@H](CCC(=O)O)C(=O)N[C@@H](CC(C)C)C(=O)N[C@@H](Cc1c[nH]cn1)C(=O)N[C@@H](CCCNC(=N)N)C(=O)N[C@@H](CC(C)C)C(=O)N[C@@H](CCC(N)=O)C(=O)N[C@@H](CC(=O)O)C(=O)N[C@@H](Cc1ccc(O)cc1)C(=O)N1CCC[C@H]1C(=O)N[C@@H](CCCNC(=N)N)C(=O)N[C@H](C(=O)N[C@@H](CC(=O)O)C(=O)N[C@@H](CO)C(=O)NCC(=O)N[C@@H](CO)C(=O)NCC(=O)N[C@@H](CO)C(=O)N1CCC[C@H]1C(N)=O)[C@@H](C)O
B4: calcitonin derivative M64 (peptide)
peptide: {C20 diacid-γGlu-AEEA-AEEA-AEEA-AEEA-AEEA-AEEA}-ASQLSTAVLGRLSEELHRLQDYPRTDVGSGSP-NH2
SMILES: CC(C)C[C@H](NC(=O)[C@H](CCCNC(=N)N)NC(=O)CNC(=O)[C@H](CC(C)C)NC(=O)[C@@H](NC(=O)[C@H](C)NC(=O)[C@@H](NC(=O)[C@H](CO)NC(=O)[C@H](CC(C)C)NC(=O)[C@H](CCC(N)=O)NC(=O)[C@H](CO)NC(=O)[C@H](C)NC(=O)COCCOCCNC(=O)COCCOCCNC(=O)COCCOCCNC(=O)COCCOCCNC(=O)COCCOCCNC(=O)COCCOCCNC(=O)CC[C@H](NC(=O)CCCCCCCCCCCCCCCCCCC(=O)O)C(=O)O)[C@@H](C)O)C(C)C)C(=O)N[C@@H](CO)C(=O)N[C@@H](CCC(=O)O)C(=O)N[C@@H](CCC(=O)O)C(=O)N[C@@H](CC(C)C)C(=O)N[C@@H](Cc1c[nH]cn1)C(=O)N[C@@H](CCCNC(=N)N)C(=O)N[C@@H](CC(C)C)C(=O)N[C@@H](CCC(N)=O)C(=O)N[C@@H](CC(=O)O)C(=O)N[C@@H](Cc1ccc(O)cc1)C(=O)N1CCC[C@H]1C(=O)N[C@@H](CCCNC(=N)N)C(=O)N[C@H](C(=O)N[C@@H](CC(=O)O)C(=O)N[C@H](C(=O)NCC(=O)N[C@@H](CO)C(=O)NCC(=O)N[C@@H](CO)C(=O)N1CCC[C@H]1C(N)=O)C(C)C)[C@@H](C)O
B5: calcitonin derivative M30 (peptide)
peptide: {C20 diacid-γGlu}-SSQLSTAVLGRLSQELHRLQDYPRTDVGSGSP-NH2
SMILES: CC(C)C[C@H](NC(=O)[C@H](CCCNC(=N)N)NC(=O)CNC(=O)[C@H](CC(C)C)NC(=O)[C@@H](NC(=O)[C@H](C)NC(=O)[C@@H](NC(=O)[C@H](CO)NC(=O)[C@H](CC(C)C)NC(=O)[C@H](CCC(N)=O)NC(=O)[C@H](CO)NC(=O)[C@H](CO)NC(=O)CC[C@H](NC(=O)CCCCCCCCCCCCCCCCCCC(=O)O)C(=O)O)[C@@H](C)O)C(C)C)C(=O)N[C@@H](CO)C(=O)N[C@@H](CCC(N)=O)C(=O)N[C@@H](CCC(=O)O)C(=O)N[C@@H](CC(C)C)C(=O)N[C@@H](Cc1c[nH]cn1)C(=O)N[C@@H](CCCNC(=N)N)C(=O)N[C@@H](CC(C)C)C(=O)N[C@@H](CCC(N)=O)C(=O)N[C@@H](CC(=O)O)C(=O)N[C@@H](Cc1ccc(O)cc1)C(=O)N1CCC[C@H]1C(=O)N[C@@H](CCCNC(=N)N)C(=O)N[C@H](C(=O)N[C@@H](CC(=O)O)C(=O)N[C@H](C(=O)NCC(=O)N[C@@H](CO)C(=O)NCC(=O)N[C@@H](CO)C(=O)N1CCC[C@H]1C(N)=O)C(C)C)[C@@H](C)O

The assay concerns the target T1, human amylin receptor (AMY3) on CHO-K1/Gal5/AMY3 cells (human, UniProt P30988 25-474; O60896 24-148).
T1 sequence (looked up) 1: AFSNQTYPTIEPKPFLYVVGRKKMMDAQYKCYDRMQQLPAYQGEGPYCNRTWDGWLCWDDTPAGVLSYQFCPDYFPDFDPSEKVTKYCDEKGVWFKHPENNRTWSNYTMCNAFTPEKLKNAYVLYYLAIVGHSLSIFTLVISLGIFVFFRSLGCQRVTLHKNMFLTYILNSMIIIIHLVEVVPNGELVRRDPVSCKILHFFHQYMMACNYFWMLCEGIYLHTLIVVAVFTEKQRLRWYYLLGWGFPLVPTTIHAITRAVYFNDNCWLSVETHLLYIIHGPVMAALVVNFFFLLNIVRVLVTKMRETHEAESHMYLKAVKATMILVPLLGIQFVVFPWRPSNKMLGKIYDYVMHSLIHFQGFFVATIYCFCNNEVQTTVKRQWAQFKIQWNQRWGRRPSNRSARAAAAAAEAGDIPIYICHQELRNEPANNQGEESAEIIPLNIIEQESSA
T1 sequence (looked up) 2: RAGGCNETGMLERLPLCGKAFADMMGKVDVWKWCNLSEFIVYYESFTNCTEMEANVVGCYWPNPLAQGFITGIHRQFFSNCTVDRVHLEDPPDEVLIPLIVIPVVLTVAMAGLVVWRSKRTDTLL
The experiment in a line: cell-based or functional assay.
Consider B1, for which the “EC50/nM, CRE-luciferase in amylin receptor/CRE-luc CHO cells” value was found to be 0.03 nM.
Turning to {C18 diacid-Inp′}-ASQLSTAVLGRLSDELHRLQDYPRTDVGSGSP-NH2 [calcitonin derivative M48], the “EC50/nM, CRE-luciferase in amylin receptor/CRE-luc CHO cells” value was 0.063 nM.
Turning to B2, the “EC50/nM, CRE-luciferase in amylin receptor/CRE-luc CHO cells” value came to 0.075 nM.
Turning to B3, the “EC50/nM, CRE-luciferase in amylin receptor/CRE-luc CHO cells” value stood at 0.025 nM.
Turning to B4, the “EC50/nM, CRE-luciferase in amylin receptor/CRE-luc CHO cells” value was 0.044 nM.
For B5, the “EC50/nM, CRE-luciferase in amylin receptor/CRE-luc CHO cells” value amounted to 0.017 nM.
